These results are taken from US20150218261A1 (AbbVie / Abbott, published 2015).

Where only a bound is given, the exact number is not on record here.

In test [1] the target is T1, human platelet factor 4 (PF-4) in HPF4-spiked human plasma (human).
T1 construct: Human EDTA plasma pool (4 donors) spiked with 10 ng/ml human PF4 (Molecular Innovation cat. no. HPF4); also called human PF4; CXCL4
The test can be described thus: sandwich ELISA (R2), HPF4-spiked human plasma; AUC of reference anti-HPF4 antibody (ab49735) against AUC of this antibody. (In general: In an ELISA, binding on a coated surface is turned into a signal by an enzyme label.)

In test [2] the target is T1, human platelet factor 4 (PF-4) in …. The test can be described thus: aligned sandwich ELISA (R4), HPF4-spiked human plasma; AUC of reference anti-HPF4 antibody (ab49735) against AUC of this antibody.
The target is the same in test [3]. The test can be described thus: sandwich ELISA (E2), HPF4-spiked human plasma; AUC of reference anti-HPF4 antibody (ab49735) against AUC of this antibody.
The target is the same in test [4]. As to the kind of experiment: aligned sandwich ELISA (E4), HPF4-spiked human plasma; AUC of reference anti-HPF4 antibody (ab49735) against AUC of this antibody.
Test [5] addresses T2, platelet factor 4 (PF-4) in Cynomolgus monkey plasma (Cynomolgus monkey (Macaca fascicularis), UniProt A0A7N9D5L6 32-101).
T2 construct: Endogenous protein of the plasma; detected with rabbit polyclonal anti-HPF4 (Abcam ab9561); also called CXCL4
T2 sequence: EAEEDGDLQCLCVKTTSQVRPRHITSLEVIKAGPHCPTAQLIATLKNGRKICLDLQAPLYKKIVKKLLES
The test can be described thus: sandwich-ELISA: antibody coated on the plate, dilution series of cynomolgus plasma, bound PF-4 detected (OD450nm).

The target in test [6] is T2, platelet factor 4 (PF-4) in Cynomolgus …. The test can be described thus: sandwich ELISA (E1), cynomolgus plasma; AUC of reference anti-HPF4 antibody (ab49735) against AUC of this antibody.
Test [7] shares this target. The test can be described thus: aligned sandwich ELISA (E3), cynomolgus plasma; AUC of reference anti-HPF4 antibody (ab49735) against AUC of this antibody. The protocol: (§1) Then 10 μl 10 mg/ml trypsin inhibitor in H₂O were added. After incubation for 10 min at room temperature the sample was filtrated through a 0.22 μm filter (Millipore cat. no. SLGS0250S).
(§2) Procedure used: [0437] 1. 100 μl of the respective aligning antibody solution (anti-human IgG for experiment E3; anti-murine IgG for reference experiment R3) per well were applied and incubated overnight at 4° C. [0438] 2. The antibody solution was discarded and the wells were washed three times with 250 μl PB ST-buffer. [0439] 3. 265 μl blocking solution per well were added and incubated 2 h at room temperature. [0440] 4. The blocking solution was discarded and the wells were washed three times with 250 μl PBST buffer. [0441] 5. After preparation of the dilution series of each binding antibody, 100 μl per well of these antibody dilutions were applied to the plate. The plate was incubated 2 h at room temperature. [0442] 6. […] Plate colour was monitored during development (5-15 min at ambient temperature) and the reaction was terminated by adding 50 μl/well of stop solution when an appropriate colour had developed. […] The absorbance was read at 450 nm.
(§3) Data analysis was performed as described for sandwich-ELISA with cynomolgus plasma in Example 3.1, except that not plasma dilution factors but the amounts of antibody (expressed in ng/ml) were used as X-values and thus concentration effect curves were calculated.

Test [8] has as its target T3, Aβ(20-42) globulomer (human).
T3 construct: Range counted on the Aβ peptide; also called amyloid-beta (20-42) globulomer
T3 peptide: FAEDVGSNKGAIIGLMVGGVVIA
As to the kind of experiment: SPR (BIAcore); antibody captured on goat anti-human IgG Fc, soluble globulomer injected; lot #1773659, average. The method, then: (§4) Interaction of the purified humanized antibodies 4D10hum#1 and 4D10hum#2 to Aβ(20-42) globulomer was evaluated by surface plasmon resonance (SPR) analysis using a BIAcore device. Goat anti-human IgG Fc (10,000 RU) was directly immobilized on a CMS sensor chip by an amine coupling procedure according to the manufacturer's instructions (BIAcore). The respective 4D10hum antibody was captured on the goat anti-human IgG Fc coated surface of the chip by injecting 5.0 μl of a 1 μg/ml 4D10hum antibody solution at a flow rate of 10-15 μl/min. Interaction of soluble Aβ(20-42) globulomer with the 4D10hum antibody on the sensor chip was examined by injecting globulomer solutions (concentration range: 20-0.3125 nM) at a flow rate of 50 μl/min. The association rate was monitored for 5.0 min and the dissociation rate was monitored for 10 min. From the resulting sensorgrams the association rate constant (kₒₙ), dissociation rate constant (koff) and equilibrium dissociation constant (KD) were determined using to the manufacturer's software and instructions. The kinetic and equilibrium constants determined for three different preparations of 4D10hum#1 and two different preparations of 4D10hum#2 are summarized in table 7. […] The heavy chains of antibodies #4 and #5 are as in 4D10hum#1 or #2, and the light chains are chimeras of m4D10 VL (SEQ ID NO:24) and the human Ig kappa constant region (SEQ ID NO:27). The light chains of antibody #3 are as in 4D10hum#1 and #2, and the heavy chains are chimeras of m4D10 VH (SEQ ID NO23) and the human Ig gamma-1 constant region (SEQ ID NO:25).
On the technique in general: Surface plasmon resonance follows binding to a sensor surface in real time, without labels.

Test [9] has as its target T3, Aβ(20-42) globulomer. As to the kind of experiment: SPR (BIAcore); antibody captured on goat anti-human IgG Fc, soluble globulomer injected; lot #1759119, average. The protocol: as §4
The target of test [10] is T3, Aβ(20-42) globulomer. The test can be described thus: SPR (BIAcore); antibody captured on goat anti-human IgG Fc, soluble globulomer injected; lot #1759119, experiment 2. The method, then:
as §4

Test [11] addresses T2, platelet factor 4 (PF-4) in Cynomolgus …. As to the kind of experiment: aligned sandwich ELISA (E3), cynomolgus plasma; AUC was 0, ratio could not be calculated. The method, then:
as §1, §2, §3

Test [12] has as its target T3, Aβ(20-42) globulomer. As to the kind of experiment: SPR (BIAcore); antibody captured on goat anti-human IgG Fc, soluble globulomer injected; lot #1773659, experiment 1. The method, then: as §4
Test [13] concerns the target T3, Aβ(20-42) globulomer. As to the kind of experiment: SPR (BIAcore); antibody captured on goat anti-human IgG Fc, soluble globulomer injected; lot #1773659, experiment 2. The protocol:
as §4

For test [14], the target named is T3, Aβ(20-42) globulomer. The test can be described thus: SPR (BIAcore); antibody captured on goat anti-human IgG Fc, soluble globulomer injected; lot #1759119, experiment 1. The protocol:
as §4

Test [15] deals with T3, Aβ(20-42) globulomer. As to the kind of experiment: SPR (BIAcore); antibody captured on goat anti-human IgG Fc, soluble globulomer injected; average. The method, then:
as §4

Test [16] concerns the target T3, Aβ(20-42) globulomer. As to the kind of experiment: SPR (BIAcore); antibody captured on goat anti-human IgG Fc, soluble globulomer injected; experiment 1. The method, then: as §4
Test [17] deals with T3, Aβ(20-42) globulomer. The test can be described thus: SPR (BIAcore); antibody captured on goat anti-human IgG Fc, soluble globulomer injected; experiment 2. The protocol: as §4

B1: anti-Aβ monoclonal antibody clone m4D10 (antibody, V domains shown)
VH: QVQLKQSGPSLIQPSQSLSITCTVSGFSLTSYGVHWVRQSPGKGLEWLGVIWRGGRIDYNAAFMSRLSITKDNSKSQVFFKMNSLQADDTAIYYCARNSDVWGTGTTVTVSS
VL: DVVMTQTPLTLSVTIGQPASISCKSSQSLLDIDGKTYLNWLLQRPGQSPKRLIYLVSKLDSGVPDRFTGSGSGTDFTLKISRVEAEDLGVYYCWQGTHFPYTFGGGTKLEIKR
notes: Murine monoclonal antibody; also called mAb m4D10; murine 4D10
Regarding B1, the “Ratio HPF4/aAβ antibody” value amounted to 21 in [1] and 27 in test [2].

B2: humanized monoclonal anti-Aβ antibody 4D10hum#1 (antibody, human IgG1, kappa, V domains shown)
VH: EVQLVESGGGLVQPGGSLRLSCAVSGFTLSSYGVHWVRQAPGKGLEWLGVIWRGGRIDYNAAFMSRLTISKDNSKSTVYLQMNSLRAEDTAVYYCARNSDVWGQGTTVTVSS
VL: DVVMTQTPLSLPVTPGQPASISCKSSQSLLDIDGKTYLNWLLQKPGQSPQRLIYLVSKLDSGVPDRFSGSGSGTDFTLKISRVEAEDVGVYYCWQGTHFPYTFGQGTKLEIKR
notes: also called mAb 4D10hum#1; mAb 4D10 hum#1
For B2, the “Ratio HPF4/aAβ antibody” value came out at 30 in test [3], 23 in [4], 64 in [6] and 158 in test [7]. Also, the binding result in [5] was “no binding (tested: plasma dilution 1:3.16)”.

B3: humanized monoclonal anti-Aβ antibody 4D10hum#2 (antibody, human IgG1, kappa, V domains shown)
VH: EVQLQESGPGLVKPSETLSLTCTVSGFSLSSYGVHWVRQPPGKGLEWLGVIWRGGRIDYNAAFMSRLTISKDTSKSQVSLKLSSVTAADTAVYYCARNSDVWGQGTTVTVSS
VL: B2 VL
notes: also called mAb 4D10hum#2; mAb 4D10 hum#2
As for B3, the Kd in the test with Aβ(20-42) globulomer [8] was found to be 0.482 nM; with Aβ(20-42) globulomer [9] it was 0.532 nM; with Aβ(20-42) globulomer [10] it was 0.609 nM; with Aβ(20-42) globulomer [12] it was 0.529 nM; with Aβ(20-42) globulomer [13], 0.435 nM; with Aβ(20-42) globulomer [14] it was 0.454 nM. The off-rate constant (koff) with Aβ(20-42) globulomer [8] was determined as 0.000283 s⁻¹; with Aβ(20-42) globulomer [9], 0.000301 s⁻¹; with Aβ(20-42) globulomer [10] it was 0.000332 s⁻¹; in the test with Aβ(20-42) globulomer [12], 0.000268 s⁻¹; with Aβ(20-42) globulomer [13], 0.000298 s⁻¹; with Aβ(20-42) globulomer [14] it was 0.00027 s⁻¹. The kon is 597000 M⁻¹ s⁻¹ in the test with Aβ(20-42) globulomer [8]; 570000 M⁻¹ s⁻¹ with Aβ(20-42) globulomer [9]; 546000 M⁻¹ s⁻¹ with Aβ(20-42) globulomer [10]; 507000 M⁻¹ s⁻¹ in the test with Aβ(20-42) globulomer [12]; 686000 M⁻¹ s⁻¹ in the test with Aβ(20-42) globulomer [13]; 593000 M⁻¹ s⁻¹ in the test with Aβ(20-42) globulomer [14]. In addition, the “Ratio HPF4/aAβ antibody” value in [3] is 17; in test [4], 75; in [11] it was > 158; in test [6], 36. Further, in test [5], the binding result is listed as “no binding (tested: plasma dilution 1:3.16)”.

B4: 4D10#3 (chimeric heavy chain; light chain as 4D10hum#1 and #2) (antibody, human IgG1, kappa, V domains shown)
VH: B1 VH
VL: B2 VL
notes: Heavy chain is a chimera of m4D10 VH and the human Ig gamma-1 constant region; light chain is the humanized one; also called antibody #3
In the case of B4, the equilibrium dissociation constant (Kd) was 0.597 nM with Aβ(20-42) globulomer [15], 0.525 nM in the test with Aβ(20-42) globulomer [16] and 0.669 nM with Aβ(20-42) globulomer [17]. Moreover, the dissociation rate constant (koff) is 0.000333 s⁻¹ with Aβ(20-42) globulomer [15], 0.000317 s⁻¹ with Aβ(20-42) globulomer [16] and 0.000349 s⁻¹ with Aβ(20-42) globulomer [17]. Also, the kon was found to be 563000 M⁻¹ s⁻¹ with Aβ(20-42) globulomer [15], 603000 M⁻¹ s⁻¹ with Aβ(20-42) globulomer [16] and 522000 M⁻¹ s⁻¹ with Aβ(20-42) globulomer [17].

B5: 4D10#4 (heavy chain as 4D10hum#1; chimeric light chain) (antibody, human IgG1, kappa, V domains shown)
VH: B2 VH
VL: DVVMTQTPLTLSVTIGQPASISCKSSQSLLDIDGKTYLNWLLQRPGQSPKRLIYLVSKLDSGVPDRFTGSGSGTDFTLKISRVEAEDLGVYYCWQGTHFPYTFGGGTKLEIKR
notes: Light chain is a chimera of m4D10 VL and the human Ig kappa constant region; also called antibody #4
On to B5, for which, in the test with Aβ(20-42) globulomer [15], binding was put at a Kd of 0.646 nM, the off-rate (koff) is 0.000313 s⁻¹ and the on-rate constant (kon) was found to be 484000 M⁻¹ s⁻¹. In the test with Aβ(20-42) globulomer [16], this molecule registered a Kd of 0.635 nM, a koff of 0.000294 s⁻¹ and a kon of 462000 M⁻¹ s⁻¹. Further, in the test with Aβ(20-42) globulomer [17], the Kd amounted to 0.657 nM, the off-rate (koff) worked out at 0.000332 s⁻¹ and the kon is 506000 M⁻¹ s⁻¹.

B6: 4D10#5 (heavy chain as 4D10hum#2; chimeric light chain) (antibody, human IgG1, kappa, V domains shown)
VH: B3 VH
VL: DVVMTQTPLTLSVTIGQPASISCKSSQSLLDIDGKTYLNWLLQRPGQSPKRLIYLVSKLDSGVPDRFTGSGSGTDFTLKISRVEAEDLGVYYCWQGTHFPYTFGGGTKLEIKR
notes: Light chain is a chimera of m4D10 VL and the human Ig kappa constant region; also called antibody #5
For the molecule B6, in the test with Aβ(20-42) globulomer [15], the Kd was 0.575 nM, the off-rate (koff) was 0.000277 s⁻¹ and the on-rate (kon) worked out at 483000 M⁻¹ s⁻¹. Also, in the test with Aβ(20-42) globulomer [16], the equilibrium dissociation constant (Kd) was 0.53 nM, the dissociation rate constant (koff) is 0.000262 s⁻¹ and the on-rate (kon) was determined as 494000 M⁻¹ s⁻¹. Further, in the test with Aβ(20-42) globulomer [17], the Kd was 0.619 nM, the koff amounted to 0.000292 s⁻¹ and the on-rate constant (kon) came to 472000 M⁻¹ s⁻¹.

A word on the Kd: it is the equilibrium constant for the complex coming apart. What is called koff is a measure of how fast the partners let go of each other. Usually kon stands for the second-order rate constant of association.
